# According to PMC10876309, “Two Main Cancer Biomarkers as Molecular Targets of Binase Antitumor Activity” (BioMed Research International, 2024):
# B1: binase, ribonuclease from Bacillus pumilus (enzyme, UniProt P00649 54-162, looked up)
# chain: AVINTFDGVADYLIRYKRLPDNYITKSQASALGWVASKGNLAEVAPGKSIGGDVFSNREGRLPSASGRTWREADINYVSGFRNADRLVYSSDWLIYKTTDHYATFTRIR
# notes: binase, ribonuclease of Bacillus pumilus, 12.3 kDa, pI 9.5; also called bacterial ribonuclease binase; cytotoxic ribonuclease from Bacillus pumilus; source: purified as described earlier [21, 22]
# Target: the molecule itself
# Test: SDS-PAGE and western blot; binase in the immunoprecipitated samples, blotted with anti-binase antibodies; bands of 12 kDa and 25 kDa
protein,measurement,value
B1,binding result,binds
